# In IntAct's records for PubMed 25910212:
# B1: Ketohexokinase (Homo sapiens), P50053-2 (parent)
# chain: MEEKQILCVGLVVLDVISLVDKYPKEDSEIRCLSQRWQRGGNASNSCTVLSLLGAPCAFMGSMAPGHVADFVLDDLRRYSVDLRYTVFQTTGSVPIATVIINEASGSRTILYYDRSLPDVSATDFEKVDLTQFKWIHIEGRNASEQVKMLQRIDAHNTRQPPEQKIRVSVEVEKPREELFQLFGYGDVVFVSKDVAKHLGFQSAEEALRGLYGRVRKGAVLVCAWAEEGADALGPDGKLLHSDAFPPPRVVDTLGAGDTFNASVIFSLSQGRSVQEALRFGCQVAGKKCGLQGFDGIV
# partner: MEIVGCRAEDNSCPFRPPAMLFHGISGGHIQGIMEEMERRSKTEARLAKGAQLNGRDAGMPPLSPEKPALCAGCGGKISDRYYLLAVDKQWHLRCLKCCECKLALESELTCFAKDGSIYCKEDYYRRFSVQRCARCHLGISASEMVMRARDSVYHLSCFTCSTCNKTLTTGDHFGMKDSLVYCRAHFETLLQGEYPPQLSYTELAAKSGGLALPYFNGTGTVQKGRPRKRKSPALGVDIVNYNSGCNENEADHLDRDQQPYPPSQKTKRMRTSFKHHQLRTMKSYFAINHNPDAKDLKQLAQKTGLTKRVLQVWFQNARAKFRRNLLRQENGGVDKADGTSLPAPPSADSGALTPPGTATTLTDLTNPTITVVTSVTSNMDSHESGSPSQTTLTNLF
# B2: Pyridoxine-5'-phosphate oxidase (Homo sapiens), Q9NVS9 (parent)
# chain: MTCWLRGVTATFGRPAEWPGYLSHLCGRSAAMDLGPMRKSYRGDREAFEETHLTSLDPVKQFAAWFEEAVQCPDIGEANAMCLATCTRDGKPSARMLLLKGFGKDGFRFFTNFESRKGKELDSNPFASLVFYWEPLNRQVRVEGPVKKLPEEEAECYFHSRPKSSQIGAVVSHQSSVIPDREYLRKKNEELEQLYQDQEVPKPKSWGGYVLYPQVMEFWQGQTNRLHDRIVFRRGLPTGDSPLGPMTHRGEEDWLYERLAP
# B3: Emerin (Homo sapiens), P50402 (parent)
# chain: MDNYADLSDTELTTLLRRYNIPHGPVVGSTRRLYEKKIFEYETQRRRLSPPSSSAASSYSFSDLNSTRGDADMYDLPKKEDALLYQSKGYNDDYYEESYFTTRTYGEPESAGPSRAVRQSVTSFPDADAFHHQVHDDDLLSSSEEECKDRERPMYGRDSAYQSITHYRPVSASRSSLDLSYYPTSSSTSFMSSSSSSSSWLTRRAIRPENRAPGAGLGQDRQVPLWGQLLLFLVFVIVLFFIYHFMQAEEGNPF
# partner: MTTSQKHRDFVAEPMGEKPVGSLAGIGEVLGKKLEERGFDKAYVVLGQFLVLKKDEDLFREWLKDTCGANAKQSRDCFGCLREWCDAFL
# B4: U4/U6 small nuclear ribonucleoprotein Prp31 (Homo sapiens), Q8WWY3 (parent)
# chain: MSLADELLADLEEAAEEEEGGSYGEEEEEPAIEDVQEETQLDLSGDSVKTIAKLWDSKMFAEIMMKIEEYISKQAKASEVMGPVEAAPEYRVIVDANNLTVEIENELNIIHKFIRDKYSKRFPELESLVPNALDYIRTVKELGNSLDKCKNNENLQQILTNATIMVVSVTASTTQGQQLSEEELERLEEACDMALELNASKHRIYEYVESRMSFIAPNLSIIIGASTAAKIMGVAGGLTNLSKMPACNIMLLGAQRKTLSGFSSTSVLPHTGYIYHSDIVQSLPPDLRRKAARLVAAKCTLAARVDSFHESTEGKVGYELKDEIERKFDKWQEPPPVKQVKPLPAPLDGQRKKRGGRRYRKMKERLGLTEIRKQANRMSFGEIEEDAYQEDLGFSLGHLGKSGSGRVRQTQVNEATKARISKTLQRTLQKQSVVYGGKSTIRDRSSGTASSVAFTPLQGLEIVNPQAAEKKVAEANQKYFSSMAEFLKVKGEKSGLMST
# partner: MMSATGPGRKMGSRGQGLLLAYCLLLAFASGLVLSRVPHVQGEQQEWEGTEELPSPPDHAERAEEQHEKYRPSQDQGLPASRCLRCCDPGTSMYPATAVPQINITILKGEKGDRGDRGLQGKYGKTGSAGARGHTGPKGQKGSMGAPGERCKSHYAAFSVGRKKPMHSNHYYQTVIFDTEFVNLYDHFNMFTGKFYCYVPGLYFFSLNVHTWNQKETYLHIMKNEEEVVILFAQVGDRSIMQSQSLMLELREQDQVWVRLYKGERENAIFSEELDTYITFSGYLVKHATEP
# B5: Acetylcholine receptor subunit gamma (Homo sapiens), P07510-2 (parent)
# chain: MHGGQGPLLLLLLLAVCLGAQGRNQEERLLADLMQNYDPNLRPAERDSDVVNVSLKLTLTNLISLNEREEALTTNVWIEMQWCDYRLRWDPRDYEGLWVLRVPSTMVWRPDIVLENKSQTYSTNEIDLQLSQEDGQTIEWIFIDPEAFTENGEWAIQHRPAKMLLDPAAPAQEAGHQKVVFYLLIQRKPLFYVINIIAPCVLISSVAILIHFLPAKAGGQKCTVAINVLLAQTVFLFLVAKKVPETSQAVPLISKYLTFLLVVTILIVVNAVVVLNVSLRSPHTHSMARGVRKVFLRLLPQLLRMHVRPLAPAAVQDTQSRLQNGSSGWSITTGEEVALCLPRSELLFQQWQRQGLVAAALEKLEKGPELGLSQFCGSLKQAAPAIQACVEACNLIACARHQQSHFDNGNEEWFLVGRVLDRVCFLAMLSLFICGTAGIFLMAHYNRVPALPFPGDPRPYLPSPD
# partner: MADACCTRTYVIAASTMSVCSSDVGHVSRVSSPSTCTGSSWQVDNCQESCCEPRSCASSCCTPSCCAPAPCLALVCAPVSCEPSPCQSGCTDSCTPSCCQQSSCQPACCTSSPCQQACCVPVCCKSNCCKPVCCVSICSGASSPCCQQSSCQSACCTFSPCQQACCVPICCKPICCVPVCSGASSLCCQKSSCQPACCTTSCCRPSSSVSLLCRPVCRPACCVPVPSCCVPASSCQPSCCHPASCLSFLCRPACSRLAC
# B6: Low density lipoprotein receptor adapter protein 1 (Homo sapiens), Q5SW96 (parent)
# chain: MDALKSAGRALIRSPSLAKQSWGGGGRHRKLPENWTDTRETLLEGMLFSLKYLGMTLVEQPKGEELSAAAIKRIVATAKASGKKLQKVTLKVSPRGIILTDNLTNQLIENVSIYRISYCTADKMHDKVFAYIAQSQHNQSLECHAFLCTKRKMAQAVTLTVAQAFKVAFEFWQVSKEEKEKRDKASQEGGDVLGARQDCTPSLKSLVATGNLLDLEETAKAPLSTVSANTTNMDEVPRPQALSGSSVVWELDDGLDEAFSRLAQSRTNPQVLDTGLTAQDMHYAQCLSPVDWDKPDSSGTEQDDLFSF
# partner: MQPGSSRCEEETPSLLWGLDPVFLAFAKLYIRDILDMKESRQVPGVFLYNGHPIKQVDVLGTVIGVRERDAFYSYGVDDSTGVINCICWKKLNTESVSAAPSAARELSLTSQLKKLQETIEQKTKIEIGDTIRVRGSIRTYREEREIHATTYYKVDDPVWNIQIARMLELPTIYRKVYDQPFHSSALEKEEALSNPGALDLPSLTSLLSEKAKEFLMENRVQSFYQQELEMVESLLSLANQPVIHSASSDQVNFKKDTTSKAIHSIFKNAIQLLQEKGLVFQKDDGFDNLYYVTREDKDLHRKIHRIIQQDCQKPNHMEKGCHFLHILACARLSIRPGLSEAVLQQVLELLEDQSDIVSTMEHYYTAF
# B7: ATP synthase mitochondrial F1 complex assembly factor 2 (Homo sapiens), Q8N5M1 (parent)
# chain: MWRSCLRLRDGGRRLLNRPAGGPSASMSPGPTIPSPARAYAPPTERKRFYQNVSITQGEGGFEINLDHRKLKTPQAKLFTVPSEALAIAVATEWDSQQDTIKYYTMHLTTLCNTSLDNPTQRNKDQLIRAAVKFLDTDTICYRVEEPETLVELQRNEWDPIIEWAEKRYGVEISSSTSIMGPSIPAKTREVLVSHLASYNTWALQGIEFVAAQLKSMVLTLGLIDLRLTVEQAVLLSRLEEEYQIQKWGNIEWAHDYELQELRARTAAGTLFIHLCSESTTVKHKLLKE
# partner: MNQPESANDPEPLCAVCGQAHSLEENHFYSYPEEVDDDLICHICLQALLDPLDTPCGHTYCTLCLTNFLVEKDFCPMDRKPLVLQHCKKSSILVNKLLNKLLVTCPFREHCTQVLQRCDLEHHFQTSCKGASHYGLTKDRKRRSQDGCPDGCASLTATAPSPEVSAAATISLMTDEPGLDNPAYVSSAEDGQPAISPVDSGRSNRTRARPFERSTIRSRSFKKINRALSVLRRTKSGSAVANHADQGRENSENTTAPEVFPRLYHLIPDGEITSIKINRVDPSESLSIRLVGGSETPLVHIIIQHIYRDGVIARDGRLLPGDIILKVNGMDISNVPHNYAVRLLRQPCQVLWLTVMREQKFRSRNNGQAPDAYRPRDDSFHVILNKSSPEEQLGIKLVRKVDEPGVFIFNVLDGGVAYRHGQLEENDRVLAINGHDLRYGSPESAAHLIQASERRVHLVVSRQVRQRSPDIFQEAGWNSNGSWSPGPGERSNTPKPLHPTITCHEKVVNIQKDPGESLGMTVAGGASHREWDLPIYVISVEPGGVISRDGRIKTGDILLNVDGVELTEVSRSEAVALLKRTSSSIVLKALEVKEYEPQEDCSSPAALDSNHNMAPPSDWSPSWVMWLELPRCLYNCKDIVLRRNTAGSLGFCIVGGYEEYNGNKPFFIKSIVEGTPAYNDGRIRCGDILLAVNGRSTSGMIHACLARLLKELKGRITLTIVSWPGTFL
# B8: Phakinin (Homo sapiens), Q13515 (parent)
# chain: MSERRVVVDLPTSASSSMPLQRRRASFRGPRSSSSLESPPASRTNAMSGLVRAPGVYVGTAPSGCIGGLGARVTRRALGISSVFLQGLRSSGLATVPAPGLERDHGAVEDLGGCLVEYMAKVHALEQVSQELETQLRMHLESKATRSGNWGALRASWASSCQQVGEAVLENARLMLQTETIQAGADDFKERYENEQPFRKAAEEEINSLYKVIDEANLTKMDLESQIESLKEELGSLSRNYEEDVKLLHKQLAGCELEQMDAPIGTGLDDILETIRIQWERDVEKNRVEAGALLQAKQQAEVAHMSQTQEEKLAAALRVELHNTSCQVQSLQAETESLRALKRGLENTLHDAKHWHDMELQNLGAVVGRLEAELREIRAEAEQQQQERAHLLARKCQLQKDVASYHALLDREESG
# partner: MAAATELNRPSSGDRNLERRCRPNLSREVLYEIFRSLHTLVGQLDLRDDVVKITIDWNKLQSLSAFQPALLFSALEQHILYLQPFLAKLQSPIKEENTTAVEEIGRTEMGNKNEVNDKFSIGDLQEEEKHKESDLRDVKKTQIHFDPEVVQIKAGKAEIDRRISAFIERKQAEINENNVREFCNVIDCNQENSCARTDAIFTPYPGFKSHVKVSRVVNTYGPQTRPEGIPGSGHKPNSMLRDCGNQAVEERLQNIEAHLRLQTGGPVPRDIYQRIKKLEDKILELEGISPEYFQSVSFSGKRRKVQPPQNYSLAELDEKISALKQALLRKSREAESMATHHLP
# Variants of: B1
# Settings: with lhx9_human LHX9, Q9NQ69
row,effect of a mutation on the interaction,Variant
1,with no effect,G40R

# Variants of: B2
# Settings: with AGTRAP
row,effect of a mutation on the interaction,Variant
1,with no effect,R116Q
2,disrupting interaction strength,R229W
3,disrupting interaction strength,R95C
4,disrupting interaction strength,R95H

# Variants of: B2
# Settings: with CMTM5, Q96DZ9-2
# Chain of CMTM5, Q96DZ9-2 (Q96DZ9 other isoform, or with tags, fused parts or gaps): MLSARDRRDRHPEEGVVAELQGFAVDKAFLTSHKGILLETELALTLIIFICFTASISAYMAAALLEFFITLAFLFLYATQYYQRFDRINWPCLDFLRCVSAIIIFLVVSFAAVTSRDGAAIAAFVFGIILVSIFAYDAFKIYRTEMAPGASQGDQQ
row,effect of a mutation on the interaction,Variant
1,with no effect,R116Q
2,disrupting interaction strength,R229W
3,disrupting interaction strength,R95C
4,disrupting interaction strength,R95H

# Variants of: B3
# Settings: with baf_human BANF1, O75531
row,effect of a mutation on the interaction,Variant
1,with no effect,P183T
2,with no effect,P183H

# The remaining lines, values behind:
row,Variant,effect of a mutation on the interaction
1,D72V,with no effect
2,S54F,with no effect

# Variants of: B4
# Settings: with C1QTNF1, Q9BXJ1-2
row,effect of a mutation on the interaction,Variant
1,with no effect,L107V

# Variants of: B5
# Settings: with kr108_human KRTAP10-8, P60410
row,effect of a mutation on the interaction,Variant
1,disrupting interaction strength,R187C
2,disrupting interaction strength,V107G
3,disrupting interaction strength,R86C

# Variants of: B6
# Settings: with stn1_human STN1, Q9H668
row,effect of a mutation on the interaction,Variant
1,with no effect,R238W

# Variants of: B7
# Settings: with lnx1_human LNX1, Q8TBB1
row,effect of a mutation on the interaction,Variant
1,disrupting interaction strength,W94R

# Variants of: B8
# Settings: with MBIP
row,effect of a mutation on the interaction,Variant
1,with no effect,R339H
2,with no effect,A407D
